Literature values as cited in PMC5912896.

Molecular target: Akt PH domain (Homo sapiens) (UniProt P31749)
UniProt P31749, sequence (P31749 2-111): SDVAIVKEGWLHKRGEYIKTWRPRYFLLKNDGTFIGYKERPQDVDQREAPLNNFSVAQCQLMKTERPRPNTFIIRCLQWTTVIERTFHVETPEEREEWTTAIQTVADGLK

Kd: 18 µM
Substance: Akt-in peptide (TCL1 A strand)
